According to the supplement of paper PMC9732359:
± gives the uncertainty stated by the source.

Assay: protein stability index of a GFP-peptide fusion (yeast GPS) (PSI 1-4); higher = more stable; sorted into four equal gates, so the index is relative within each strain
How it was run: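 Sequencing reads from sorted gates were used to score each peptide. The library consisted of tiled 17-residue yeast protein peptides fused downstream of GFP on a Cherry-expressing plasmid, pooled and carried in yeast. Mid-log cultures in leucine-free medium were split into four equal gates by GFP/Cherry ratio, and each gate's plasmids were PCR-amplified and Illumina-sequenced. The protein stability index adds up, over all gates, the read frequency multiplied by the gate number.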

TVKFKHMDYDGNIVKEF [YMR129W/POM152]
protein stability index (doa10∆): 2.89 ± 0.079
protein stability index (pdr5∆): 2.39 ± 0.043
protein stability index (san1∆): 2.67 ± 0.094
protein stability index (ubr1∆): 2.99 ± 0.05

EDFQKRQQKLLEDQQRQ [SWI1]
protein stability index (doa10∆): 3.21 ± 0.11
protein stability index (pdr5∆): 3.16 ± 0.051
protein stability index (san1∆): 3.14 ± 0.057
protein stability index (ubr1∆): 3.19 ± 0.047

RAPKANGALDPKMGVSS [RPO31]
protein stability index (doa10∆): 3.12 ± 0.23
protein stability index (pdr5∆): 3.11 ± 0.16
protein stability index (san1∆): 3.05 ± 0.093
protein stability index (ubr1∆): 3.04 ± 0.08

IQDSNGDVKNMEDVKIQ [SWI3]
protein stability index (doa10∆): 2.86 ± 0.071
protein stability index (pdr5∆): 2.8 ± 0.091
protein stability index (san1∆): 2.41 ± 0.1
protein stability index (ubr1∆): 2.94 ± 0.061

QDRHVIFLAERRILPKP [RPS7A]
protein stability index (doa10∆): 2.53 ± 0.23
protein stability index (pdr5∆): 2.93 ± 0.12
protein stability index (san1∆): 2.86 ± 0.27
protein stability index (ubr1∆): 2.73 ± 0.088

SFFHQSNMQKSLLPYYH [RPN3]
protein stability index (doa10∆): 1.66 ± 0.037
protein stability index (pdr5∆): 1.67 ± 0.041
protein stability index (san1∆): 1.63 ± 0.07
protein stability index (ubr1∆): 1.9 ± 0.03

PNALKPLSESLRLVDDD [RRP6]
protein stability index (doa10∆): 3.15 ± 0.091
protein stability index (pdr5∆): 3.34 ± 0.081
protein stability index (san1∆): 2.82 ± 0.093
protein stability index (ubr1∆): 3.23 ± 0.055

LILAGQVKVKGQLGEMA [YCS4]
protein stability index (doa10∆): 3.49 ± 0.1
protein stability index (pdr5∆): 3.35 ± 0.097
protein stability index (san1∆): 3.12 ± 0.069
protein stability index (ubr1∆): 2.87 ± 0.072

NQNSSTGAGAFGTGQST [YJL041W/NSP1]
protein stability index (doa10∆): 2.33 ± 0.058
protein stability index (pdr5∆): 1.99 ± 0.062
protein stability index (san1∆): 2.31 ± 0.11
protein stability index (ubr1∆): 2.6 ± 0.048

EPELRVLSTEEILNIFK [RPO21]
protein stability index (doa10∆): 3.43 ± 0.22
protein stability index (pdr5∆): 3.45 ± 0.17
protein stability index (san1∆): 3.51 ± 0.084
protein stability index (ubr1∆): 3.55 ± 0.23

VAAASKILSNLVYQYKG [PRE2]
protein stability index (doa10∆): 2.62 ± 0.088
protein stability index (pdr5∆): 2.5 ± 0.056
protein stability index (san1∆): 2.54 ± 0.078
protein stability index (ubr1∆): 2.49 ± 0.051

SGQTPVQSKARYTVRTF [RPL11A]
protein stability index (doa10∆): 2.29 ± 0.094
protein stability index (pdr5∆): 2.06 ± 0.081
protein stability index (san1∆): 1.72 ± 0.13
protein stability index (ubr1∆): 1.71 ± 0.089

VPTVPPSQSEEQKGQMA [MED4]
protein stability index (doa10∆): 2.78 ± 0.12
protein stability index (pdr5∆): 2.82 ± 0.058
protein stability index (san1∆): 3 ± 0.067
protein stability index (ubr1∆): 2.6 ± 0.091

VQPTIGQLPQLPKLNLP [SNF5]
protein stability index (doa10∆): 3.05 ± 0.044
protein stability index (pdr5∆): 2.75 ± 0.046
protein stability index (san1∆): 2.49 ± 0.057
protein stability index (ubr1∆): 3.08 ± 0.043

QVNIRFLLHNSEIIDTN [SRB8]
protein stability index (doa10∆): 2.17 ± 0.059
protein stability index (pdr5∆): 2.71 ± 0.057
protein stability index (san1∆): 2.79 ± 0.055
protein stability index (ubr1∆): 2.7 ± 0.04

ESKDSIQDLIVKLKQQK [SMC3]
protein stability index (doa10∆): 3.35 ± 0.1
protein stability index (pdr5∆): 3.12 ± 0.13
protein stability index (san1∆): 3.09 ± 0.14
protein stability index (ubr1∆): 3.35 ± 0.15

GNMGITTEMLDKLMVTS [MED6]
protein stability index (doa10∆): 3.36 ± 0.1
protein stability index (pdr5∆): 3.55 ± 0.1
protein stability index (san1∆): 3.26 ± 0.068
protein stability index (ubr1∆): 3.07 ± 0.11

GNASLKYIALQVIVDIF [YCG1]
protein stability index (doa10∆): 1.2 ± 0.069
protein stability index (pdr5∆): 1.36 ± 0.076
protein stability index (san1∆): 1.19 ± 0.12
protein stability index (ubr1∆): 1.54 ± 0.15

STMKENKDLSELVIRLE [YIL149C/MLP2]
protein stability index (doa10∆): 3.08 ± 0.08
protein stability index (pdr5∆): 3.1 ± 0.082
protein stability index (san1∆): 3.16 ± 0.065
protein stability index (ubr1∆): 3.09 ± 0.069

VQISNIPDIGDLPDTEG [PRP8]
protein stability index (doa10∆): 3.24 ± 0.07
protein stability index (pdr5∆): 3.29 ± 0.059
protein stability index (san1∆): 3.2 ± 0.049
protein stability index (ubr1∆): 3.23 ± 0.043

EGEYELTEAVEDGPRPF [RPL5]
protein stability index (pdr5∆): 3.31 ± 0.17
protein stability index (san1∆): 3.38 ± 0.066

PRLEKLINEILLKSNDP [RGR1]
protein stability index (doa10∆): 1.68 ± 0.059
protein stability index (pdr5∆): 2.01 ± 0.045
protein stability index (san1∆): 1.75 ± 0.079
protein stability index (ubr1∆): 1.86 ± 0.039

FDHNDKKLSINSAARNI [PRE7]
protein stability index (doa10∆): 2.72 ± 0.059
protein stability index (pdr5∆): 2.47 ± 0.059
protein stability index (san1∆): 2.4 ± 0.055
protein stability index (ubr1∆): 2.83 ± 0.065

TLDKKDSIPLRITNSFY [RPN9]
protein stability index (doa10∆): 2.52 ± 0.13
protein stability index (pdr5∆): 2.81 ± 0.11
protein stability index (san1∆): 2.9 ± 0.096
protein stability index (ubr1∆): 2.92 ± 0.13

FQEGVVVAKKDFNQAKH [RPS10A]
protein stability index (doa10∆): 2.1 ± 0.27
protein stability index (pdr5∆): 2.92 ± 0.27
protein stability index (san1∆): 2.91 ± 0.16
protein stability index (ubr1∆): 2.79 ± 0.12

GGLTKQIKEIKEVIELP [RPT6]
protein stability index (doa10∆): 3.74 ± 0.27
protein stability index (san1∆): 3.48 ± 0.27

QIPQQLYQSLTPQQLQM [SNF5]
protein stability index (doa10∆): 2.73 ± 0.041
protein stability index (pdr5∆): 2.7 ± 0.038
protein stability index (san1∆): 2.57 ± 0.045
protein stability index (ubr1∆): 2.77 ± 0.034

IGQSEELSDKEIYTVED [ISW2]
protein stability index (doa10∆): 3.35 ± 0.13
protein stability index (pdr5∆): 3.46 ± 0.14
protein stability index (san1∆): 3.31 ± 0.17
protein stability index (ubr1∆): 3.44 ± 0.13

LSSAGKNSSVSSLMNGL [SRB5]
protein stability index (pdr5∆): 1.24 ± 0.11

KKNVWRSINNLIQEHDS [BRN1]
protein stability index (doa10∆): 3.16 ± 0.1
protein stability index (pdr5∆): 2.75 ± 0.075
protein stability index (san1∆): 2.63 ± 0.052
protein stability index (ubr1∆): 2.57 ± 0.041

PEHLRKIINTHSDMASK [PRP8]
protein stability index (doa10∆): 2.01 ± 0.053
protein stability index (pdr5∆): 2.04 ± 0.051
protein stability index (san1∆): 2.15 ± 0.097
protein stability index (ubr1∆): 2.37 ± 0.039

SPVELSRMFEEVSGSIQ [SMC1]
protein stability index (doa10∆): 2.9 ± 0.06
protein stability index (pdr5∆): 2.16 ± 0.052
protein stability index (san1∆): 2.38 ± 0.065
protein stability index (ubr1∆): 3.02 ± 0.062

YAKFKRNTMMIQCQIDK [RGR1]
protein stability index (doa10∆): 2.23 ± 0.055
protein stability index (pdr5∆): 2.24 ± 0.051
protein stability index (san1∆): 2.1 ± 0.065
protein stability index (ubr1∆): 2.34 ± 0.033

LLDTNSLEENAMSTVTL [SKI6]
protein stability index (doa10∆): 3.11 ± 0.086
protein stability index (pdr5∆): 3.04 ± 0.066
protein stability index (san1∆): 3.04 ± 0.083
protein stability index (ubr1∆): 2.89 ± 0.061

DYAQLDHLVSSIPMGGQ [ARP9]
protein stability index (doa10∆): 2.1 ± 0.065
protein stability index (pdr5∆): 2.36 ± 0.071
protein stability index (san1∆): 2.36 ± 0.067
protein stability index (ubr1∆): 2.15 ± 0.053

EMKTQAAELQEKPLTPL [SNF6]
protein stability index (doa10∆): 2.97 ± 0.19
protein stability index (pdr5∆): 3.14 ± 0.12
protein stability index (san1∆): 2.8 ± 0.088
protein stability index (ubr1∆): 2.89 ± 0.087

EYYVMMDFANLWVFQAF [SRB8]
protein stability index (doa10∆): 2.37 ± 0.098
protein stability index (pdr5∆): 2.37 ± 0.082
protein stability index (san1∆): 2.63 ± 0.093
protein stability index (ubr1∆): 2.64 ± 0.057

SKMSDESFAELMTKLNS [RPC17]
protein stability index (doa10∆): 3.29 ± 0.12
protein stability index (pdr5∆): 3.67 ± 0.12
protein stability index (san1∆): 3.09 ± 0.098
protein stability index (ubr1∆): 3.37 ± 0.12

VVKGLPDISRAVINIRD [RPO31]
protein stability index (doa10∆): 2.83 ± 0.083
protein stability index (pdr5∆): 2.23 ± 0.097
protein stability index (san1∆): 2.6 ± 0.23
protein stability index (ubr1∆): 2.47 ± 0.083

RSALEKGSRFISTLQVK [RPB2]
protein stability index (doa10∆): 1.47 ± 0.13
protein stability index (pdr5∆): 1.23 ± 0.087
protein stability index (san1∆): 1.67 ± 0.19
protein stability index (ubr1∆): 1.6 ± 0.088

ICKNCSAILLSETDKRQ [RPO31]
protein stability index (doa10∆): 2.59 ± 0.086
protein stability index (pdr5∆): 2.85 ± 0.058
protein stability index (san1∆): 2.81 ± 0.068
protein stability index (ubr1∆): 2.96 ± 0.041

GEKNSDDYSNEDNEMLE [YJR042W/NUP85]
protein stability index (san1∆): 2.06 ± 0.29
protein stability index (ubr1∆): 1.89 ± 0.14

LTLIFYDVLHDVFTINP [YML103C/NUP188]
protein stability index (doa10∆): 1.7 ± 0.071
protein stability index (pdr5∆): 2.09 ± 0.051
protein stability index (san1∆): 2.3 ± 0.071
protein stability index (ubr1∆): 2.55 ± 0.054

SFLEGSKALNSILESSM [RGR1]
protein stability index (doa10∆): 1.81 ± 0.19
protein stability index (pdr5∆): 1.59 ± 0.1
protein stability index (san1∆): 3.09 ± 0.21
protein stability index (ubr1∆): 2.02 ± 0.13

STLGDCLGIKDEEMLTS [GAL11]
protein stability index (doa10∆): 3.17 ± 0.18
protein stability index (pdr5∆): 3.11 ± 0.13
protein stability index (san1∆): 2.81 ± 0.062
protein stability index (ubr1∆): 3.04 ± 0.088

EAVELPLVQADLYEQIG [RPT3]
protein stability index (doa10∆): 3.17 ± 0.15
protein stability index (pdr5∆): 2.81 ± 0.24
protein stability index (san1∆): 3.39 ± 0.12
protein stability index (ubr1∆): 2.93 ± 0.17

SATPNAAAFSQQQNASS [GAL11]
protein stability index (doa10∆): 2.94 ± 0.063
protein stability index (pdr5∆): 3.1 ± 0.054
protein stability index (san1∆): 2.89 ± 0.035
protein stability index (ubr1∆): 3.09 ± 0.041

KIKFDESSKLMTVTKVS [BRR2]
protein stability index (doa10∆): 1.75 ± 0.099
protein stability index (pdr5∆): 1.36 ± 0.078
protein stability index (san1∆): 1.5 ± 0.2
protein stability index (ubr1∆): 1.35 ± 0.05

NYDIITASSLAHDYNND [YML103C/NUP188]
protein stability index (doa10∆): 2.64 ± 0.063
protein stability index (pdr5∆): 2.05 ± 0.075
protein stability index (san1∆): 2.61 ± 0.087
protein stability index (ubr1∆): 2.33 ± 0.056

PSFMLKHHQLFYMLNAG [RPN1]
protein stability index (doa10∆): 1.33 ± 0.099
protein stability index (pdr5∆): 1.53 ± 0.11
protein stability index (san1∆): 1.18 ± 0.19
protein stability index (ubr1∆): 1.12 ± 0.086

LLGKESFKKIIKFLLTF [YCS4]
protein stability index (doa10∆): 1.45 ± 0.063
protein stability index (pdr5∆): 1.57 ± 0.11
protein stability index (san1∆): 1.18 ± 0.16
protein stability index (ubr1∆): 1.65 ± 0.06

ISTPIINAVLVNDNDER [RPO31]
protein stability index (doa10∆): 2.25 ± 0.085
protein stability index (pdr5∆): 2.22 ± 0.1
protein stability index (san1∆): 2.31 ± 0.12
protein stability index (ubr1∆): 2.21 ± 0.086

RQKINGCEANIHSLVKQ [YIL149C/MLP2]
protein stability index (doa10∆): 3.12 ± 0.14
protein stability index (pdr5∆): 3.33 ± 0.13
protein stability index (san1∆): 2.98 ± 0.22
protein stability index (ubr1∆): 2.79 ± 0.21

RDCIDISIFSTPGSVSL [PRP8]
protein stability index (doa10∆): 2.79 ± 0.11
protein stability index (pdr5∆): 2.88 ± 0.11
protein stability index (san1∆): 2.45 ± 0.1
protein stability index (ubr1∆): 3.02 ± 0.12
